{"source": "paper PMC7156385", "about": "“Proper chromosome alignment depends on BRCA2 phosphorylation by PLK1” (Nature Communications, 2020)", "molecules": {"B1": {"name": "BRCA2 17 aa peptide containing pT207 (194WSSSLATPPTLSS{pT}VLI210) (peptide)", "peptide": "Ac-WSSSLATPPTLSS[pT]VLI-NH2", "SMILES": "CC[C@H](C)[C@H](NC(=O)[C@H](CC(C)C)NC(=O)[C@@H](NC(=O)[C@@H](NC(=O)[C@H](CO)NC(=O)[C@H](CO)NC(=O)[C@H](CC(C)C)NC(=O)[C@@H](NC(=O)[C@@H]1CCCN1C(=O)[C@@H]1CCCN1C(=O)[C@@H](NC(=O)[C@H](C)NC(=O)[C@H](CC(C)C)NC(=O)[C@H](CO)NC(=O)[C@H](CO)NC(=O)[C@H](CO)NC(=O)[C@H](Cc1c[nH]c2ccccc12)NC(C)=O)[C@@H](C)O)[C@@H](C)O)[C@@H](C)OP(=O)(O)O)C(C)C)C(N)=O", "notes": "BRCA2, human, residues 194-210, T207 phosphorylated; Used for ITC and for the crystal; also called pT207 peptide; T207 phosphorylated peptide; source: synthetic peptide"}, "B2": {"name": "purified 2xMBP-BRCA2_(1-250) WT (domain or fragment, human, UniProt P51587 1-250, looked up)", "chain": "MPIGSKERPTFFEIFKTRCNKADLGPISLNWFEELSSEAPPYNSEPAEESEHKNNNYEPNLFKTPQRKPSYNQLASTPIIFKEQGLTLPLYQSPVKELDKFKLDLGRNVPNSRHKSLRTVKTKMDQADDVSCPLLNSCLSESPVVLQCTHVTPQRDKSVVCGSLFHTPKFVKGRQTPKHISESLGAEVDPDMSWSSSLATPPTLSSTVLIVRNEEASETVFPHDTTANVKSYFSNHDESLKKNDRFIASV", "notes": "BRCA2, human, amino acids 1 to 250; also called PLK1-phosphorylated BRCA2_(1-250); source: HEK293T, transfected, purified (amylose resin, Bio-Rex 70)"}, "B3": {"name": "BRCA2 peptide containing pS197 (peptide)", "chain": "Ac-DMSWSS[pS]LAT-NH2", "SMILES": "CSCC[C@H](NC(=O)[C@H](CC(=O)O)NC(C)=O)C(=O)N[C@@H](CO)C(=O)N[C@@H](Cc1c[nH]c2ccccc12)C(=O)N[C@@H](CO)C(=O)N[C@@H](CO)C(=O)N[C@@H](COP(=O)(O)O)C(=O)N[C@@H](CC(C)C)C(=O)N[C@@H](C)C(=O)N[C@H](C(N)=O)[C@@H](C)O"}}, "key": {"[1]": {"biological_target": "BRCA2_(190-284) phosphorylated by PLK1 (human) (UniProt P51587)", "sequence (P51587 190-284)": "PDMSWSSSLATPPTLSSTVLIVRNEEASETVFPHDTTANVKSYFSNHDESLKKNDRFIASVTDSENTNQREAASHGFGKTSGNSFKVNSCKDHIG", "assay": "ITC; PLK1 PBD (326-603) and BRCA2 peptides; 50 mM Tris-HCl pH 8.0, 150 mM NaCl, 5 mM β-ME, 293 K, VP-ITC, one-site binding model"}, "[2]": {"biological_target": "endogenous BUBR1 (human (endogenous in DLD1)) (UniProt O60566)", "sequence (O60566 whole entry)": "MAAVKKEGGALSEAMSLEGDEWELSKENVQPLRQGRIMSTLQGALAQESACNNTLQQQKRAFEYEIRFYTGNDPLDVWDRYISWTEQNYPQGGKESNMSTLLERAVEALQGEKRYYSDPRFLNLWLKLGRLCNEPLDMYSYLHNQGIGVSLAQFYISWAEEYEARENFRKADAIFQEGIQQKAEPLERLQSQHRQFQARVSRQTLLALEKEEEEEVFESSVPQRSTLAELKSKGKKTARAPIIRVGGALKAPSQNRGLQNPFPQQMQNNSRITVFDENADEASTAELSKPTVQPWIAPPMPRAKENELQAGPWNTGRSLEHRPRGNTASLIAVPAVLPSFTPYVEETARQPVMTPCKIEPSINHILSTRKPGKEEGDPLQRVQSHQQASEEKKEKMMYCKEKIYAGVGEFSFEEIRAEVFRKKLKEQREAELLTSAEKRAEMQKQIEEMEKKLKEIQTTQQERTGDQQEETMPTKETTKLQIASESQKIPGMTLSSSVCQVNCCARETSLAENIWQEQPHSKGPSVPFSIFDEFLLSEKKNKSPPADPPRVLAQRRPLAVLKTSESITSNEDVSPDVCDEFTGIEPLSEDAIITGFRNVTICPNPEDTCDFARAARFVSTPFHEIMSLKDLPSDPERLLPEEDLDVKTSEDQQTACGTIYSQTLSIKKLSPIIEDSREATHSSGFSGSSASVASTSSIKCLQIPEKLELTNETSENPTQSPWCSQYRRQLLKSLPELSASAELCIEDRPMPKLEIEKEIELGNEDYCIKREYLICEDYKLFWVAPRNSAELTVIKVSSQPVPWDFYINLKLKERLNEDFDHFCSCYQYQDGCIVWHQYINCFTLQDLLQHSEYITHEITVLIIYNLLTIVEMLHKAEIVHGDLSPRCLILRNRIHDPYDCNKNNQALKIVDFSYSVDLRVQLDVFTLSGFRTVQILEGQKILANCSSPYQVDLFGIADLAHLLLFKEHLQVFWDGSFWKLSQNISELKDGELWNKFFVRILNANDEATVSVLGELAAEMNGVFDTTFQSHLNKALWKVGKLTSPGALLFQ", "assay": "co-IP; immunoprecipitation of endogenous BUBR1 with mouse anti-BUBR1 antibody from nocodazole-treated DLD1 BRCA2-/- stable clones expressing BRCA2 WT or variants; extraction buffer A, washes up to 500 mM NaCl; western blot for PP2A-C and PLK1"}, "[3]": {"biological_target": "purified 2xMBP-BRCA2_(1-250) T207A (human) (UniProt P51587)"}, "[4]": {"biological_target": "T1, PLK1 Polo-box domain (amino acid 326 to amino acid 603) (UniProt P53350 326-603)", "T1 construct": "PLK1, Polo-box domain, amino acids 326 to 603, amplified from Addgene pTK24; also called PLK1PBD; PLK1 PBD (326-603); source: E. coli Tuner pLacI pRare, purified (His-Trap, SUMO protease, Ni-NTA, Superdex)", "T1 sequence (P53350 326-603)": "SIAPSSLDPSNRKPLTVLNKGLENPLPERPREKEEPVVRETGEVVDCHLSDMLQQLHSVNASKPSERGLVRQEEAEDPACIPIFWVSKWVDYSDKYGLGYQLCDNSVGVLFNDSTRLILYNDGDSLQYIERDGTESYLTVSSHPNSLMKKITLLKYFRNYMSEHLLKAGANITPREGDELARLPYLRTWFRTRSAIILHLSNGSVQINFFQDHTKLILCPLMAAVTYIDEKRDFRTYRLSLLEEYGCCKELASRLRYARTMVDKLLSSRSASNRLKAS", "assay": "ITC; PLK1 PBD (326-603) and BRCA2 peptides; 50 mM Tris-HCl pH 8.0, 150 mM NaCl, 5 mM β-ME, 293 K, VP-ITC, one-site binding model", "details": "both partners purified"}, "recombinant PLK1": {"biological_target": "T2, recombinant PLK1 (UniProt P53350 1-603)", "T2 construct": "Polo-like kinase 1 (PLK1), cDNA from Addgene pTK24 cloned into pFast-Bac HT; also called 6xHis-PLK1; PLK1-WT; source: Sf9, purified (Ni-NTA, Capto S) or bought: Abcam", "assay": "pull-down; in vitro kinase reaction (0.2 µg PLK1 or PLK1-KD, 0.5 µg 2xMBP-BRCA2_(1-250), kinase buffer with 250 µM ATP or without ATP, 30 min at 30 °C) followed by amylose beads for 1 h at 4 °C, washes with 0.5% NP-40 and 0.1% Triton X-100, elution with 10 mM maltose; western blot", "details": "both partners purified"}}, "note": "[ ]: non-standard residue; d: D form. pT = C[C@@H](OP(=O)(O)O)[C@H](N)C(=O)O; pS = N[C@@H](COP(=O)(O)O)C(=O)O", "data": [{"molecule": "PLK1 Polo-box domain (amino acid 326 to amino acid 603) (from UniProt P53350 326-603) (domain or fragment)", "values": [{"measurement": "Kd", "setting": "[1]", "result": 140, "unit": "nM"}]}, {"molecule": "PP2A (detected by its catalytic subunit, PP2AC) (from UniProt P67775 1-309) (cell line)", "values": [{"measurement": "reduction of PP2A co-immunoprecipitated with BUBR1 in BRCA2-T207A cells against BRCA2 WT cells", "setting": "[2]", "result": 30, "unit": "%"}]}, {"molecule": "recombinant PLK1 (from UniProt P53350 1-603) (enzyme)", "values": [{"measurement": "fold decrease in in vitro kinase assay: phosphorylation of 2xMBP-BRCA2 (1-250) by recombinant PLK1 (32P), T207A against WT", "setting": "[3]", "result": 2, "unit": "fold"}]}, {"molecule": "B1", "values": [{"measurement": "Kd", "setting": "[4]", "result": "90 ± 10", "unit": "nM"}]}, {"molecule": "B2", "values": [{"measurement": "binding result", "setting": "recombinant PLK1", "result": "binds"}]}, {"molecule": "B3", "values": [{"measurement": "Kd", "setting": "[4]", "result": "17000 ± 2000", "unit": "nM"}]}]}
